# Results as given in the NTF2 design screens of Basanta et al. (2020).
# Test: protease stability score; higher = more stable; yeast display proteolysis, trypsin and chymotrypsin;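 also: relative to predicted unfolded state with 0 unfolded-like and 1 meaning tenfold more protease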
row,Sequence,protease stability score
1,SDEERDSRKAEEKWIRTLETGDERIITELADPNVRLEIGDKTFHGREDFYKFMTYLTRHLRVERFEIKRFDFQGEWIHMKTHINMRVGEFSHHSDTEIVAYKVNGRWVIHNVRVE,0.831
2,HEEEKHMEELSRHFLHNEHTGDEKMLKHLADPHAKVFINGRELHGWDVLVEWLNKFKNIKVELHSERVINGRLFLHVNYHVNGRTTELHLILYIVDGKIHTLILEVR,0.756
3,DEEHELLEHWLRLFEEAFSTGDWRIMARLIDPNARLEIGEKDHHGREELIKFMLRVDHIDDFRLHEKDRTEIDGRLRMNGNNEVQGTVNGQKRNITIDIHIVVVKVDGRWFVERIRIR,1.3
4,RDEDHELKEMRRMIHEIIMTGDEDKWKKMADPHVQLHIGDKHHHGRDHVSRILTELRVHHFDVEHIHHEFINGRATLRIEGTLHGIINGVEKKVETEIRIIIIKFNGVWYIESQEFHVI,0.492
5,DHDEKVSKEVLHEFLHVLRTGNWDHLIKNIDPNARLEVDGVDIHGRENVHKFLDEFHKRMGVDHHELHDEKMTIIDGVLQIDLDTTTEFNGRRFKTTIHLFVLKINGRWTFKTLIIKHE,2.03
6,HEEEQEIEKIVEDILRAWETGDWKTFYELADPHTKHTLIQGDKHIHRHGRDRMSDLLEELLKRFKGAIVDIKDIKWIDGQLNMTGELQIGDKKHKVHLHMNFIDGKIKRIEIRVD,1.13
7,DDSERILRWFWNVLAESIETGDEEVMKELFDPNTRIHVNGQDHIGMEHRTRLASEMRITLYRVDLKRIHEVDGRIVLHIEVETHGTINGRLEHSKVRVQIIVSKIDGKWRMHQVEVK,1.38
8,SHEDELIEKTLHITLEAYTTGDEHTVTRMLDPHVKILFNGVELIGRELVWEHLKEIRMHWHHVHIEDIKRQGEKIHITGRLYMEIRQGDYRERSTYRTRIITLKINGRWFIESLEIN,1.95
9,SEVNKHVEEISKLMVKFLLTGNEDLHKSLADPNYYSDVNGRHVIGRHHVEELWHLFLNEIRIDNIHIEDMKIQGEKAHIQGRIIGTVNGKHDELHATMIVVVIDGRIHSLKVEWR,1
10,DEERENAERMLKAWVEILETGDEHRISRLLDPNVQFQIGDKHLHGREDVLRHLSEMIKKVKNLTISIHSINIQGDKVHVDGHIHVNGVDHKNDLILLKVNGRWFVTSLKIE,1.78
11,SEEDHHADEFRRIMYEIFETGDEKKFEDLFDPNVRWEQGDKHTHGMETATRDMLDLERRLGVDHIKYKDIRFELVDGRMIVYIIGTIYINGRPRHLHIEIIVSKINGRWFVENVRMKVE,2.14
12,SEEEDLFRKIIELLLRLSKTGDEETWRRLMDPHARLEINGRIFHGREYAERFMTQFDHIHSIEIKDMHIYNGKVEEHGHVDGIVNGRRTKHDMVFILVKVDGVWLIEEVVVR,1.39
13,DEKHEFVRRRIEEWLEALRTGDEDTLHRLADPNVKMNINGVERHGRESMLSLFEEFGVNHFHIRDVKIQGEKSFIDGEIRYGDKIHRVQMEIQVIDGVLESHKLRVH,1.13
14,DEEEETMERALRETLHFINTGDEDSMEELMDPNWRIHIDGKDLHGWKFFQHLLRRADHIHIHIELKDVRRVGDKLELDGRLHVIYFIDGQEIHKVVDTHIYMIKINGRWHHKFIEIK,2.15
15,SEDEQQALEIIRQWVEFVRTGDEDSVRRLLDPNVRYEVNGREFHGRELVVRILWEIVYHLGVKHVDNKVEHMEIQGEFVKVETTMILRYNGRTLYIDTRIIIFKIDGRWVFRSIEEK,1.63
16,SEEEHDWRRALKIFLESLTTGDPKSITELVDPNARSDINGVDLHGREEWSKEMNRIKNLTIHDFEIEHISIYDGKAEINGHLDFEFDGVRTKIEVHLIFEKVDGKWVIQSRIVK,0.895
17,REEDEIAENLFRLWIKSFLTGDFNTLRKLMDPHVRIHINGQEIHGREDFVRLLWEEFRRLGAKFHIEIKHLDVQGDKVFSEGTLRIEQGNKKDSKSVLIELIVVDGVITEIRMDVR,2.25
18,HENEHRMKEFVREVFDLRRTGNWEQLQELFDPNVRIEIGDKRYHGWENLSHFLLHARQDMHIEVTSVEVQGDKIIADGRLEYTLRVGDKDVTYDHRTIIIAHKFNGKWFFTTERIK,1.33
19,TEEEEELRRIEHLTIELIETGDEDTLKRLADPNARLNIEFNGVHIHSHGREEMARLLHEWYRTMGIKHEELKRSEIQGDKVILHTELRIGDKTVSTIIITLVINGRIKWIRIIIK,1.36
20,TEEDHHAKRMTKMWEEALITGNEHLVKEMFDPHARYRQGEWDLVGREEISKFVLTNLEEWRIDHHHTHSLHLQGEKSHVRSRVLGIFDGKRFETHLQVDVEVINGKIHDLTIRIT,0.678
